To fix the notation:
B1: 2+2 IgG-[L]-scFv, anti-CD33 Fab x anti-CD3 scFv (bispecific antibody)
light: EIVLTQSPATLSVSLGERATISCRASESVDNYGISFMNWFQQKPGQPPRLLIYAASNQGSGVPARFSGSGPGTDFTLTISSMEPEDFAMYFCQQSKEVPWTFGGGTKLEIKRTVAAPSVFIFPPSDEQLKSGTASVVCLLNNFYPREAKVQWKVDNALQSGNSQESVTEQDSKDSTYSLSSTLTLSKADYEKHKVYACEVTHQGLSSPVTKSFNRGECTSGGGGSGGGGSGGGGSQVQLVQSGGGVVQPGRSLRLSCKASGYTFTRYTMHWVRQAPGKCLEWIGYINPSRGYTNYNQKFKDRFTISRDNSKNTAFLQMDSLRPEDTGVYFCARYYDDHYSLDYWGQGTPVTVSSGGGGSGGGGSGGGGSGGGGSGGGGSGGGGSDIQMTQSPSSLSASVGDRVTITCSASSSVSYMNWYQQTPGKAPKRWIYDTSKLASGVPSRFSGSGSGTDYTFTISSLQPEDIATYYCQQWSSNPFTFGCGTKLQITR
heavy: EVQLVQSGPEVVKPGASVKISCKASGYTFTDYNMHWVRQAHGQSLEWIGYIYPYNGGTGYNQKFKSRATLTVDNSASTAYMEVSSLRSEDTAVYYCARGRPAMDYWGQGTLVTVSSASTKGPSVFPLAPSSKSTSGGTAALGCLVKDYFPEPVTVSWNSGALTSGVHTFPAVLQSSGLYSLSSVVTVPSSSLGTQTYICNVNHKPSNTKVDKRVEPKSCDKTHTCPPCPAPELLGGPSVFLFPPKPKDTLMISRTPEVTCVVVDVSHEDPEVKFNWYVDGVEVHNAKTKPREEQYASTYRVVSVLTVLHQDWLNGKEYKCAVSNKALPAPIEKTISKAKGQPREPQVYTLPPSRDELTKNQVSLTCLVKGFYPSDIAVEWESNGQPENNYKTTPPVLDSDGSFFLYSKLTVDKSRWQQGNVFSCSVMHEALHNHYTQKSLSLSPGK
notes: also called 2+2 (CD33); anti-CD33/CD3 IgG-[L]-scFv
B2: 1+2 IgG-[L]-scFv variant, one anti-GD2 Fab, one irrelevant (anti-CD33) Fab, two anti-CD3 scFv (1(GD2)+2(CD3)) (bispecific antibody)
light 1: EIVMTQTPATLSVSAGERVTITCKASQSVSNDVTWYQQKPGQAPRLLIYSASNRYSGVPARFSGSGYGTEFTFTISSVQSEDFAVYFCQQDYSSFGQGTKLEIKRTVAAPSVFIFPPSDEQLKSGTASVVCLLNNFYPREAKVQWKVDNALQSGNSQESVTEQDSKDSTYSLSSTLTLSKADYEKHKVYACEVTHQGLSSPVTKSFNRGECTSGGGGSGGGGSGGGGSQVQLVQSGGGVVQPGRSLRLSCKASGYTFTRYTMHWVRQAPGKCLEWIGYINPSRGYTNYNQKFKDRFTISRDNSKNTAFLQMDSLRPEDTGVYFCARYYDDHYSLDYWGQGTPVTVSSGGGGSGGGGSGGGGSGGGGSGGGGSGGGGSDIQMTQSPSSLSASVGDRVTITCSASSSVSYMNWYQQTPGKAPKRWIYDTSKLASGVPSRFSGSGSGTDYTFTISSLQPEDIATYYCQQWSSNPFTFGCGTKLQITR
heavy 1: not shown
light 2: B1 light
heavy 2: not shown
notes: also called 1+2 BsAb
B3: 2+1 IgG-[L]-scFv variant, two anti-GD2 Fabs and one anti-CD3 scFv (2(GD2)+1(CD3)) (bispecific antibody)
light 1: B2 light 1
light 2: EIVMTQTPATLSVSAGERVTITCKASQSVSNDVTWYQQKPGQAPRLLIYSASNRYSGVPARFSGSGYGTEFTFTISSVQSEDFAVYFCQQDYSSFGQGTKLEIKRTVAAPSVFIFPPSDEQLKSGTASVVCLLNNFYPREAKVQWKVDNALQSGNSQESVTEQDSKDSTYSLSSTLTLSKADYEKHKVYACEVTHQGLSSPVTKSFNRGEC
heavy 1: QVQLVESGPGVVQPGRSLRISCAVSGFSVTNYGVHWVRQPPGKGLEWLGVIWAGGITNYNSAFMSRLTISKDNSKNTVYLQMNSLRAEDTAMYYCASRGGHYGYALDYWGQGTLVTVSSASTKGPSVFPLAPSSKSTSGGTAALGCLVKDYFPEPVTVSWNSGALTSGVHTFPAVLQSSGLYSLSSVVTVPSSSLGTQTYICNVNHKPSNTKVDKRVEPKSCDKTHTCPPCPAPELLGGPSVFLFPPKPKDTLMISRTPEVTCVVVDVSHEDPEVKFNWYVDGVEVHNAKTKPREEQYASTYRVVSVLTVLHQDWLNGKEYKCAVSNKALPAPIEKTISKAKGQPREPQVYTLPPSRDELTKNQVSLTCLVKGFYPSDIAVEWESNGQPENNYKTTPPVLDSDGSFLLYSKLTVDKSRWQQGNVFSCSVMHEALHNHYTQKSLSLSPGK
heavy 2: B3 heavy 1 with L407F, K411R
notes: Heterodimer made by Fab arm exchange; Choice of the first anti-GD2 set as for m1; also called 2+1 BsAb
B4: 1+1C IgG-[L]-scFv variant, one anti-GD2 Fab and one anti-CD3 scFv in cis, second Fab irrelevant (anti-CD33) (bispecific antibody)
light 1: B2 light 1
heavy 1: not shown
light 2: EIVLTQSPATLSVSLGERATISCRASESVDNYGISFMNWFQQKPGQPPRLLIYAASNQGSGVPARFSGSGPGTDFTLTISSMEPEDFAMYFCQQSKEVPWTFGGGTKLEIKRTVAAPSVFIFPPSDEQLKSGTASVVCLLNNFYPREAKVQWKVDNALQSGNSQESVTEQDSKDSTYSLSSTLTLSKADYEKHKVYACEVTHQGLSSPVTKSFNRGEC
heavy 2: not shown
B5: 1+1T IgG-[L]-scFv variant, one anti-GD2 Fab and one anti-CD3 scFv in trans, second Fab irrelevant (anti-CD33) (bispecific antibody)
light 1: B3 light 2
heavy 1: not shown
light 2: B1 light
heavy 2: not shown
B6: IgG-Het, heterodimeric IgG with one anti-GD2 Fab and one anti-CD3 Fab (1+1) (bispecific antibody)
light 1: B3 light 2
heavy 1: not shown
light 2: DIQMTQSPSSLSASVGDRVTITCSASSSVSYMNWYQQTPGKAPKRWIYDTSKLASGVPSRFSGSGSGTDYTFTISSLQPEDIATYYCQQWSSNPFTFGQGTKLQITRTVAAPSVFIFPPSDEQLKSGTASVVCLLNNFYPREAKVQWKVDNALQSGNSQESVTEQDSKDSTYSLSSTLTLSKADYEKHKVYACEVTHQGLSSPVTKSFNRGEC
heavy 2: not shown
notes: also called 1+1H; 1 + 1H
B7: 2+2 IgG-[L]-scFv bispecific antibody, anti-GD2 Fab x anti-CD3 scFv (2(GD2)+2(CD3)) (bispecific antibody)
light: B2 light 1
heavy: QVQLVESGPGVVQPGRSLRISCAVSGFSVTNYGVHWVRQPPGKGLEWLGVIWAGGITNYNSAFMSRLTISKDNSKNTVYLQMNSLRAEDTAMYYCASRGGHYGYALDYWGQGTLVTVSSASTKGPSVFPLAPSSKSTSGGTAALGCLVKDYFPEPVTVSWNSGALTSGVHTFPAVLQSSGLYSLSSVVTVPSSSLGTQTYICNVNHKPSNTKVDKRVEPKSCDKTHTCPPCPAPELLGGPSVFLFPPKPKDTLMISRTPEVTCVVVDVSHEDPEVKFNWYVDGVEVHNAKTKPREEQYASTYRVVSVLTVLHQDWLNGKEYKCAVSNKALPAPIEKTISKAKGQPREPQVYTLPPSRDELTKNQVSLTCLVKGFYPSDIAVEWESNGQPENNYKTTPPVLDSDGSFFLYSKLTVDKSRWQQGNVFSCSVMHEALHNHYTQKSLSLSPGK
notes: Homodimeric format; also called 2+2 BsAb; parental 2+2

The text below walks through data of patent US20220098329A1 (Memorial Sloan Kettering, published 2022).

Residue numbers refer to the chain shown, from its start.

T2 sequence (P07766 23-126, stated change not applied, chain 1 of 2): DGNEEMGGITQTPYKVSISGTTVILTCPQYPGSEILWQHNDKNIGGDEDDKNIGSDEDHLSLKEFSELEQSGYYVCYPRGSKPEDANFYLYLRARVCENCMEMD
T2 sequence (P04234 22-105, stated change not applied, chain 2 of 2): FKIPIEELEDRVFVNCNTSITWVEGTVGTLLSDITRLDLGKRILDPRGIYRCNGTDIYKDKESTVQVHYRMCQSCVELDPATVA

For the first assay, the target named is T1, CD33 on MOLM13-fluc cells (UniProt P20138 18-364, limits assumed).
T1 construct: whole, on cells; also called CD33(+) MOLM13-fluc
T1 sequence (P20138 18-364 limits assumed): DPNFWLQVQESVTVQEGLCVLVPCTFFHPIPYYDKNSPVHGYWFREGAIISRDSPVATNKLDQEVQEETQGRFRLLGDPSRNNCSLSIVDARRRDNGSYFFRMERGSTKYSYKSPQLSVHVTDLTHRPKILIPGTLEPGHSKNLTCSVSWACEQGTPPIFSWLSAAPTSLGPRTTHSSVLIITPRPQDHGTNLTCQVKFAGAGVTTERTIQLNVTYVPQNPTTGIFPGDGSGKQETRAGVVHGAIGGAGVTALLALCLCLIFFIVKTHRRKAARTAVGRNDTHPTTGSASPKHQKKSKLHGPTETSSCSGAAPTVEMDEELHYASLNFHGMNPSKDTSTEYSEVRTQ
Kind of assay: flow cytometry, CD33(+) MOLM13-fluc cells.
As to B1, the binding result is “binds”.

A further assay addresses T2, huCD3de antigen (human CD3 delta/epsilon, coated on SPR chip) (human, UniProt P07766 23-126; P04234 22-105).
T2 construct: Source and construct are not described; also called CD3 coated chips
The experiment in a line: SPR (Biacore T200), huCD3de-coated chip.
With B2, the “Fold Change (KD CD3, against 2+2)” value amounted to 1 fold.
B3: the “Fold Change (KD CD3, against 2+2)” value is 30.1 fold.
For the molecule B4, the “Fold Change (KD CD3, against 2+2)” value is 11 fold.
For B5, the “Fold Change (KD CD3, against 2+2)” value amounted to 8.5 fold.
For B6, the “Fold Change (KD CD3, against 2+2)” value worked out at 6.8 fold.

Another assay concerns the target T2, huCD3de antigen (human CD3 …). The experiment in a line: SPR (Biacore T200), huCD3de-coated chip, BsAb titrated over chip, two-state reaction model.
B7 registered a dissociation constant Kd of 10 nM. That is a double-digit nanomolar value.
In turn, B2 showed an equilibrium dissociation constant (Kd) of 11 nM.
B3 showed a Kd of 310 nM.
B4 came in with a Kd of 110 nM.
Molecule B5 had a dissociation constant Kd of 88 nM.
In the case of B6, binding was characterised by a dissociation constant (Kd) of 70 nM.
